Ends that are not written are not given here. * marks the point of attachment. Biotin = O=C1N[C@H]2[C@H](CS[C@H]2CCCCC(=O)*)N1
Tests used:
Experiment in all cases: A/G assays
[1] = target: T1, GST-KIAA0303 PDZ domain fusion protein (KIAA0303 AA652-742; PDZ domain 1 of 1) (UniProt P08515 1-218 = GST)
T1 construct: also called K303

[2] = target: GST-LIMK2 PDZ domain fusion protein (human LIM domain kinase 2 AA185-275; PDZ domain 1 of 1) (human, UniProt P08515 1-218 = GST)
[3] = target: GST-MPP1 PDZ domain fusion protein (55 Kd erythrocyte membrane protein AA101-186; PDZ domain 1 of 1) (UniProt P08515 1-218 = GST)
[4] = target: T2, GST-TAX2 PDZ domain fusion protein (human tax interaction protein 2 AA54-140; PDZ domain 1 of 1) (human, UniProt P08515 1-218 = GST)
T2 construct: also called TX 2

[5] = target: T3, GST-MPP2 PDZ domain fusion protein (maguk p55 subfamily member 2 (DLG2) AA185-273; PDZ domain 1 of 1) (UniProt P08515 1-218 = GST)
T3 construct: also called MMP2

[6] = target: T4, GST-TAX40 PDZ domain fusion protein (human tax interaction protein 40 AA35-137; PDZ domain 1 of 1) (human, UniProt P08515 1-218 = GST)
T4 construct: also called TX 40

[7] = target: GST-MINT3 PDZ domain fusion protein (human MINT3 AA11-52; PDZ domain 1 of 1) (human, UniProt P08515 1-218 = GST)
[8] = target: GST-prIL16 PDZ domain fusion protein (putative interleukin 16 precursor AA170-383; PDZ domains 1-2 of 2) (UniProt P08515 1-218 = GST)
[9] = target: GST-NOS1 PDZ domain fusion protein (human neuronal nitric oxide synthase; PDZ domain 1 of 1) (human, UniProt P08515 1-218 = GST)
[10] = target: T5, GST-CBP PDZ domain fusion protein (Cytohesin binding protein HE AA85-175; PDZ domain 1 of 1) (UniProt P08515 1-218 = GST)
T5 construct: also called Prot

[11] = target: GST-LIM PDZ domain fusion protein (Human LIM protein AA29-112; PDZ domain 1 of 1) (human, UniProt P08515 1-218 = GST)
[12] = target: GST-DVL1 PDZ domain fusion protein (human dishevelled segment polarity protein homolog AA248-340); PDZ domain … (human, UniProt P08515 1-218 = GST)
[13] = target: T6, GST-KIAA0316 PDZ domain fusion protein (KIAA0316 AA197-284; PDZ domain 1 of 1) (UniProt P08515 1-218 = GST)
T6 construct: also called K316

[14] = target: T7, GST-SYN1a PDZ domain fusion protein (alpha1-syntrophin AA96-189; PDZ domain 1 of 1) (UniProt P08515 1-218 = GST)
T7 construct: also called SYN 1 alpha; SYNTR 1 alpha

[15] = target: GST-PTN-4 PDZ domain fusion protein (protein-tyrosine phosphatase meg1 AA774-862; PDZ domain 1 of 1) (UniProt P08515 1-218 = GST)
[16] = target: T8, GST-TAX43 PDZ domain fusion protein (human tax interaction protein 43 AA15-85; PDZ domain 1 of 1) (human, UniProt P08515 1-218 = GST)
T8 construct: also called TX 43

[17] = target: GST-TIAM1 PDZ domain fusion protein (T-lymphoma invasion and metastasis inducing protein 1 AA1001-1088); PDZ 1 … (UniProt P08515 1-218 = GST)
[18] = target: T9, GST-TAX33 PDZ domain fusion protein (tax interaction protein 33 AA73-162; PDZ domain 1 of 1) (UniProt P08515 1-218 = GST)
T9 construct: also called TX33

[19] = target: GST-PSD95 PDZ domain fusion protein (human post-synaptic density protein 95 AA387-724; PDZ domains 1-3 of 3) (human, UniProt P08515 1-218 = GST)
[20] = target: T10, GST-41.8 kD PDZ domain fusion protein (hypothetical 41.8 kD protein AA4-85; PDZ domain 1 of 1) (UniProt P08515 1-218 = GST)
T10 construct: also called hypoth

[21] = target: T11, GST-NeDLG PDZ domain fusion protein (presynaptic protein sao102, neuroendocrine-dlg; PDZ domains 1-2 of 3) (UniProt P08515 1-218 = GST)
T11 construct: also called NeDLG1

[22] = target: T12, GST-CASK PDZ domain fusion protein (CASK AA495-584; PDZ domain 1 of 1) (mouse, UniProt P08515 1-218 = GST)
T12 construct: also called mCASK

[23] = target: T13, GST-RGS12 PDZ domain fusion protein (human regulator of G-protein signalling 12 AA35-103; PDZ domain 1 of 1) (human, UniProt P08515 1-218 = GST)
T13 construct: also called RSG12

[24] = target: T14, GST-KIAA0559 PDZ domain fusion protein (KIAA0559 AA766-870; PDZ1 of 1) (UniProt P08515 1-218 = GST)
T14 construct: also called K559

[25] = target: GST-AF6 PDZ domain fusion protein (af-6 protein AA985-1077; PDZ domain 1 of 1) (UniProt P08515 1-218 = GST)

Measured: binding result

T4 sequence (P08515 1-218, tags or fused parts left off): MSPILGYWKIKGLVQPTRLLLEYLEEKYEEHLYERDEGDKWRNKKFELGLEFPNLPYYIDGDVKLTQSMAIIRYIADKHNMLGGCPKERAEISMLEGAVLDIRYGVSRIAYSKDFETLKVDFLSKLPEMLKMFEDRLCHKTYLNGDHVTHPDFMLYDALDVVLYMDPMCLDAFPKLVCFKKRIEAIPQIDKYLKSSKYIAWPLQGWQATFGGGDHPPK
T3 sequence (P08515 1-218, tags or fused parts left off): as above
Sequence of GST-PSD95 PDZ domain fusion protein (human post-synaptic density protein 95 AA387-724; PDZ domains 1-3 of 3) (P08515 1-218, tags or fused parts left off): as above
T11 sequence (P08515 1-218, tags or fused parts left off): as above
Sequence of GST-prIL16 PDZ domain fusion protein (putative interleukin 16 precursor AA170-383; PDZ domains 1-2 of 2) (P08515 1-218, tags or fused parts left off): as above
Sequence of GST-MPP1 PDZ domain fusion protein (55 Kd erythrocyte membrane protein AA101-186; PDZ domain 1 of 1) (P08515 1-218, tags or fused parts left off): as above
T14 sequence (P08515 1-218, tags or fused parts left off): as above
T8 sequence (P08515 1-218, tags or fused parts left off): as above
T12 sequence (P08515 1-218, tags or fused parts left off): as above
T7 sequence (P08515 1-218, tags or fused parts left off): as above
Sequence of GST-AF6 PDZ domain fusion protein (af-6 protein AA985-1077; PDZ domain 1 of 1) (P08515 1-218, tags or fused parts left off): as above
T2 sequence (P08515 1-218, tags or fused parts left off): as above
Sequence of GST-LIMK2 PDZ domain fusion protein (human LIM domain kinase 2 AA185-275; PDZ domain 1 of 1) (P08515 1-218, tags or fused parts left off): as above
Sequence of GST-MINT3 PDZ domain fusion protein (human MINT3 AA11-52; PDZ domain 1 of 1) (P08515 1-218, tags or fused parts left off): as above
Sequence of GST-DVL1 PDZ domain fusion protein (human dishevelled segment polarity protein homolog AA248-340); PDZ domain … (P08515 1-218, tags or fused parts left off): as above
T5 sequence (P08515 1-218, tags or fused parts left off): as above
T9 sequence (P08515 1-218, tags or fused parts left off): as above
T1 sequence (P08515 1-218, tags or fused parts left off): as above
Sequence of GST-LIM PDZ domain fusion protein (Human LIM protein AA29-112; PDZ domain 1 of 1) (P08515 1-218, tags or fused parts left off): as above
T6 sequence (P08515 1-218, tags or fused parts left off): as above
Sequence of GST-TIAM1 PDZ domain fusion protein (T-lymphoma invasion and metastasis inducing protein 1 AA1001-1088); PDZ 1 … (P08515 1-218, tags or fused parts left off): as above

B1: FasLigand C-terminal PL peptide AA23L-M, biotinylated (peptide)
peptide: Biotin-SSKSKSSEESQTFFGLYKL
no binding: all assays above

B2: CC CKR-1R C-terminal PL peptide AA41L, biotinylated (peptide)
peptide: Biotin-LERVSSTSPSTGEHELSAGF
no binding: all assays above

B3: CD62E C-terminal PL peptide AA48L, biotinylated (peptide)
peptide: Biotin-SSSQSLESDGSYQKPSYIL
no binding: all assays above

B4: FceRIb C-terminal PL peptide AA25L, biotinylated (peptide)
peptide: Biotin-YSATYSELEDPGEMSPPIDL
notes: also called Fc epsilon receptor beta I chain
no binding: all assays above

B5: CC CKR-4 C-terminal PL peptide AA44L, biotinylated (peptide)
peptide: Biotin-DTPSSSYTQSTMDHDLHDAL
no binding: all assays above

From patent publication US20090149339A1 (published 2009)
